In paper doi:10.1101/2024.02.19.580982 (bioRxiv, 2024):

Biological target: α-Synuclein preformed fibrils (α-Syn PFF) (mouse, UniProt O55042 1-140)
Test: ELISA

B1: ΔNBD hNOD2-Fc (Fc fusion)
chain: MGEEGGSASHDEEERASVLLGHSPGCEMCSQEAFQAQRSQLVELLVSGSLEGFESVLDWLLSWEVLSWEDYEGFHLLGQPLSHLARRLLDTVWNKGTWACQKLIAAAQEAQADSQSPKLHGCWDPHSLHPARDLQSHRPAIVRRLHSHVENMLDLAWERGFVSQYECDEIRLPIFTPSQRARRLLDLATVKANGLAAFLLQHVQELPVPLALPLEAATCKKYMAKLRTTVSAQSRFLSTYDGAETLCLEDIYTENVLEVWADVGMAGPPQKSPATLGLEELFSTPGHLNDDAADVPPALLRHLFNCGRPGNSPMARLLPTMCIQASEGKDSSVAALLQKAEPHNLQITAAFLAGLLSREHWGLLAECQTSEKALLRRQACARWCLARSLRKHFHSIPPAAPGEAKSVHAMPGFIWLIRSLYEMQEERLARKAARGLNVGHLKLTFCSVGPTECAALAFVLQHLRRPVALQLDYNSVGDIGVEQLLPCLGVCKALYLRDNNISDRGICKLIECALHCEQLQKLALFNNKLTDGCAHSMAKLLACRQNFLALRLGNNYITAAGAQVLAEGLRGNTSLQFLGFWGNRVGDEGAQALAEALGDHQSLRWLSLVGNNIGSVGAQALALMLAKNVMLEELCLEENHLQDEGVCSLAEGLKKNSSLKILKLSNNCITYLGAEALLQALERNDTILEVWLRGNTFSLEEVDKLGCRDTRLLL
- Kd: 0.42 µM

B2: ΔCARD hNOD2-Fc (Fc fusion)
chain: CKKYMAKLRTTVSAQSRFLSTYDGAETLCLEDIYTENVLEVWADVGMAGPPQKSPATLGLEELFSTPGHLNDDADTVLVVGEAGSGKSTLLQRLHLLWAAGQDFQEFLFVFPFSCRQLQCMAKPLSVRTLLFEHCCWPDVGQEDIFQLLLDHPDRVLLTFDGFDEFKFRFTDRERHCSPTDPTSVQTLLFNLLQGNLLKNARKVVTSRPAAVSAFLRKYIRTEFNLKGFSEQGIELYLRKRHHEPGVADRLIRLLQETSALHGLCHLPVFSWMVSKCHQELLLQEGGSPKTTTDMYLLILQHFLLHATPPDSASQGLGPSLLRGRLPTLLHLGRLALWGLGMCCYVFSAQQLQAAQVSPDDISLGFLVRAKGVVPGSTAPLEFLHITFQCFFAAFYLALSADVPPALLRHLFNCGRPGNSPMARLLPTMCIQASEGKDSSVAALLQKAEPHNLQITAAFLAGLLSREHWGLLAECQTSEKALLRRQACARWCLARSLRKHFHSIPPAAPGEAKSVHAMPGFIWLIRSLYEMQEERLARKAARGLNVGHLKLTFCSVGPTECAALAFVLQHLRRPVALQLDYNSVGDIGVEQLLPCLGVCKALYLRDNNISDRGICKLIECALHCEQLQKLALFNNKLTDGCAHSMAKLLACRQNFLALRLGNNYITAAGAQVLAEGLRGNTSLQFLGFWGNRVGDEGAQALAEALGDHQSLRWLSLVGNNIGSVGAQALALMLAKNVMLEELCLEENHLQDEGVCSLAEGLKKNSSLKILKLSNNCITYLGAEALLQALERNDTILEVWLRGNTFSLEEVDKLGCRDTRLLL
- Kd: 16.4 µM
